Non-standard residues stand in square brackets, D forms with d. methoxy‑PEG 20 kDa = linear 20 kDa methoxy-PEG conjugated through D-Cys sulfur

This experiment concerns the target T1, CD271 (Homo sapiens, UniProt P08138).
T1 construct: total protein lysates of WM266-4 and Lu1205 melanoma cell lines were immunoprecipitated with the peptide conjugated to sepharose beads; endogenous in cells; host or cells: WM266-4 and 1205Lu melanoma cell lines (ATCC)
T1 sequence (P08138 29-427): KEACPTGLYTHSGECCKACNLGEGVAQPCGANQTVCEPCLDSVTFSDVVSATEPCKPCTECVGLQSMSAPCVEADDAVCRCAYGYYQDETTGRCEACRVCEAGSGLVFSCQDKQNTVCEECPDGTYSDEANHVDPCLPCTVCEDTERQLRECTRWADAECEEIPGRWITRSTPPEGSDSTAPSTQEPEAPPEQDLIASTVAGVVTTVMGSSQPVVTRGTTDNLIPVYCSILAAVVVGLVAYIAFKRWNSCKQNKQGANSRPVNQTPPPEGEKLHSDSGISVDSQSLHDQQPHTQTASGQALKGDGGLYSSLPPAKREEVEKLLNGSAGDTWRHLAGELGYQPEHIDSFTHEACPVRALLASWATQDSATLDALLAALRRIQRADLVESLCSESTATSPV
Kind of experiment: Immunoprecipitation of melanoma cell lysates with the peptide, blotted against CD271. The class given is binding. Particulars: protein extracts of WM266-4 and 1205Lu melanoma cell lines. As to the method:
FIG. 1. […] Protein extracts from two melanoma cell lines were immunoprecipitated with the Pegylated form of the peptide (XYZ) and blotted against CD271. The sepharose beads-protein lysates (without CD271) is used as negative control, while no-immunoprecipitated protein lysate from WM266-4 is used as positive control.
1205Lu and WM266-4 melanoma cell lines were treated with or without XYZ. 24 h later cells were harvested with RIPA buffer (10 mM Tris, pH 8.0; 150 mM NaCl; 1% Nonidet P-40, 0.5% deoxycholate; 0.1% SDS) containing protease inhibitors. Nuclei were removed by centrifugation (11,000 rpm for 3 min). Monoclonal antibody anti-p75NTR (Upstate) was bound to sepharose beads lh at 4° C. under rotation. Then, pre-cleared lysates were conjugated to sepharose beads-antibody complex or to sepharose beads alone as negative control, overnight at 4° C. under rotation. Immunocomplexes were washed with Port Buffer (10 mM Tris-HCl, pH 8.5; 150 mM NaCl; 0.1% Renex 30; 0.01% BSA; 2.5% NaN3) six times and with PT Buffer (10 mM Tris-HCl, pH 8.5; 150 mM NaCl; 0.5% Tween 20; 2.5% NaN3) three times. Samples were eluted with 1× Laemnli sample buffer for […] at 90° C. and Western Blotting for p75NTR was performed.
Immunocomplexes were washed with Port Buffer and with PT Buffer, then eluted with Laemnli sample buffer for 5′ at 90° C. […]

Take “Ac-DMet-DLeu-Gly-DIle-DIle-DAla-Gly-DLys-DAsn-DSer-Gly-DCys-NH2 with a linear 20 kDa methoxy-PEG polymer conjugated to the D-Cys residue through the sulfur atom of the latter (Ac-[dM][dL]G[dI][dI][dA]G[dK][dN][dS]G[dC](methoxy‑PEG 20 kDa)-NH2) [XYZ]”: the “binding to CD271 (immunoprecipitation, blot against CD271)” value was “immunoprecipitate with CD271”.

The values are drawn from patent US20230137491A1, “PEPTIDES AND USES THEREOF” (SINTICA BIOTECH SOCIETÀ A RESPONSABILITÀ LIMITATA …, priority 2020, published 2023).
